Literature values as cited in US20040253224A1, “Mammalian mucinase, its recombinant production, and its use in therapy or prophylaxis against diseases in which mucus is involved or infectious diseases” (priority 2001, published 2004).

Assays:
[1] = in vitro
[2] = aerosolized, Phase 3, cystic fibrosis patients

B1: recombinant human DNase I: recombinant human deoxyribonuclease I, an enzyme that selectively cleaves DNA (Pulmozyme, Genentech) (protein, UniProt P24855 23-282, looked up)
Deoxyribonuclease-1: LKIAAFNIQTFGETKMSNATLVSYIVQILSRYDIALVQEVRDSHLTAVGKLLDNLNQDAPDTYHYVVSEPLGRNSYKERYLFVYRPDQVSAVDSYYYDDGCEPCGNDTFNREPAIVRFFSRFTEVREFAIVPLHAAPGDAVAEIDALYDVYLDVQEKWGLEDVMLMGDFNAGCSYVRPSQWSSIRLWTSPTFQWLIPDSADTTATPTHCAYDRIVVAGMLLRGAVVPDSALPFNFQAAYGLSDQLAQAISDHYPVEVMLK
For B1, the “mucociliary transportability of CF sputum” value [1] is listed as “increased”, the “viscosity and adhesiveness of purulent CF sputum” value [1] is listed as “decrease” and the “improvement in FEV1” value [2] is listed as 5.6-5.8%. The “reduction in respiratory exacerbations” value [2] was 28-37%.
